In patent publication US20220348648A1 (published 2022):
Like-named read-outs stand apart in the source and are kept apart here.

T1: Recombinant Human DLL3 Protein (amino acids Ala27-Ala479, Cat #9749-DL, R&D Systems) (UniProt Q9NYJ7 27-479)
T1 chain: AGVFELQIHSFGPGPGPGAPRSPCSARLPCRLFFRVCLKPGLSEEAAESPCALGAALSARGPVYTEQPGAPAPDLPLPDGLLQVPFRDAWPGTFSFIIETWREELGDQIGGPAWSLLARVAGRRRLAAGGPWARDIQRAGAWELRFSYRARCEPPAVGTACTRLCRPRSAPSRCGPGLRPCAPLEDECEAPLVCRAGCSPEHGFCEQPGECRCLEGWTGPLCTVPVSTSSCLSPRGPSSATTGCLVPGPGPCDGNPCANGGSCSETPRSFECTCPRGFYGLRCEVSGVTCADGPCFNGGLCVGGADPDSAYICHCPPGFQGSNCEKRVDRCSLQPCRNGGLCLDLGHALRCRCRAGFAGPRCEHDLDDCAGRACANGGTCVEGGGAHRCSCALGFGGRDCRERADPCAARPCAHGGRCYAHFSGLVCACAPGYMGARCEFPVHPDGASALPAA

B1: 6-G23-F (antibody, V domains shown)
VH: QVQLVQSGAEVKKPGASVKVSCKASGYTFTSYYIHWVRQAPGQGLEWMGIIDPSDGSTNYAQKFQGRVTMTRDTSTSTVYMELSSLRSEDTAVYYCARDREYNYYGLDVWGQGTTVTVSS
VL: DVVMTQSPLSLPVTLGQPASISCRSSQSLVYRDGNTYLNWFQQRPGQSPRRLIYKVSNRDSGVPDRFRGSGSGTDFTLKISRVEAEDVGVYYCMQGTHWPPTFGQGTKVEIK
B2: 2-C8-A (antibody, V domains shown)
VH: EVQLVESGGGLVQPGGSQRLSCAASGFTFSSYWMNWVRQAPGKGLEWVANIKEDGSEKYYVDSVKGRFTISRDNAKNSLYLQMNSLRAEDTAVYYCARDPGWAPFDYWGQGTLVTVSS
VL: DIQMSQSPSSLSASVGDRVTITCRASQGISNYLAWFQQKPGKAPKSLIYAASSLQSGVPSKFSGSGSGTDFTLAISSLQPEDFATYYCQQYNSFPYTFGQGTTLEIK
B3: 10-O18-A (antibody, V domains shown)
VH: QVQLQESGPGLVKPSETLSLTCTVSGGSINSYYWSWIRQPPGKGLEWIGYIFYSGITNYNPSLKSRVTISLDTSKNQFSLKLSSVTAADTAVYYCARIGVAGFYFDYWGQGTLVTVSS
VL: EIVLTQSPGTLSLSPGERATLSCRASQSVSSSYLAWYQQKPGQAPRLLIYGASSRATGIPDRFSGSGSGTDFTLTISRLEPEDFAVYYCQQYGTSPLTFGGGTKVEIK
B4: 7-I1-B (antibody, V domains shown)
VH: EVQLVESGGGLVKPGGSLRLSCAASGFTFSNTWMSWVRQAPGKGLEWVGRIKSKSDGGTTDYAAPVKGRFTISRDDSKNTLYLQMNSLKTEDTAVYYCTQYYWNSFDYWGQGTLVTVSS
VL: not shown

How the values were obtained:
Test in all cases: BLI (Octet HTX)
[1] = molecular target: T1, Recombinant Human DLL3 Protein (amino …)
[2] = molecular target: T1, Recombinant Human DLL3 Protein (amino …)
[3] = molecular target: T1, Recombinant Human DLL3 Protein (amino …)

Row | Binder | Kd [1] | Kd [2] | Kd [3]
1 | B1 | 0.16 nM | 0.16 nM | –
2 | B2 | – | 0.668 nM | 0.668 nM
3 | B3 | – | 0.62 nM | 0.602 nM
4 | B4 | 0.686 nM | 0.68 nM | –
